Measurements published in the supplement of paper PMC9876800.

Tested on: peptide library, one residue held at a place counted from the S/T acceptor
Experiment: relative phosphorylation of the sub-library (ratio to the mean residue at this position); higher = residue favoured
Conditions: human
Method in brief: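 Purified recombinant kinases (human or orthologue constructs) were incubated in 384-well plates with biotinylated degenerate peptide sub-libraries, each fixing one residue at one position around a central Ser/Thr. Peptides were at 50 μM, with 50 μM ATP spiked with γ-32P-ATP, for 90 min under kinase-specific conditions. Spots on streptavidin membranes were phosphorimaged and quantified by densitometry. Relative sub-library phosphorylation is a ratio to the mean residue at that position.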

Chain of NLK, construct: Full length (Q9UBE8 whole entry, looked up): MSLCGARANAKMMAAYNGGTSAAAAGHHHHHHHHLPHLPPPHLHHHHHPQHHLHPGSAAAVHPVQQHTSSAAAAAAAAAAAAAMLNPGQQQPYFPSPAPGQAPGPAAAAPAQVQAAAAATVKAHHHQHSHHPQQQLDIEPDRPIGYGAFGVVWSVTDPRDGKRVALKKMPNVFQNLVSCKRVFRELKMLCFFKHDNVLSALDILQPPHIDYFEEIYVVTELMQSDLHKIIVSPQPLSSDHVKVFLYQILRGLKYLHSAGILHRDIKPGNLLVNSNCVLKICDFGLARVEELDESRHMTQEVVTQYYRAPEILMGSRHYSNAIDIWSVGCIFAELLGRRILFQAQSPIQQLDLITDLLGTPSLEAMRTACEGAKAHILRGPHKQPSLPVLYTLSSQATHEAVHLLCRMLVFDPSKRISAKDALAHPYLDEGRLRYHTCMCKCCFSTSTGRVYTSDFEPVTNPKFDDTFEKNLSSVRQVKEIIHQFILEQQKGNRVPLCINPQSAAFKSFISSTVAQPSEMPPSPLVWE
Chain of MYLK2, construct: Full length (Q9H1R3 whole entry, looked up): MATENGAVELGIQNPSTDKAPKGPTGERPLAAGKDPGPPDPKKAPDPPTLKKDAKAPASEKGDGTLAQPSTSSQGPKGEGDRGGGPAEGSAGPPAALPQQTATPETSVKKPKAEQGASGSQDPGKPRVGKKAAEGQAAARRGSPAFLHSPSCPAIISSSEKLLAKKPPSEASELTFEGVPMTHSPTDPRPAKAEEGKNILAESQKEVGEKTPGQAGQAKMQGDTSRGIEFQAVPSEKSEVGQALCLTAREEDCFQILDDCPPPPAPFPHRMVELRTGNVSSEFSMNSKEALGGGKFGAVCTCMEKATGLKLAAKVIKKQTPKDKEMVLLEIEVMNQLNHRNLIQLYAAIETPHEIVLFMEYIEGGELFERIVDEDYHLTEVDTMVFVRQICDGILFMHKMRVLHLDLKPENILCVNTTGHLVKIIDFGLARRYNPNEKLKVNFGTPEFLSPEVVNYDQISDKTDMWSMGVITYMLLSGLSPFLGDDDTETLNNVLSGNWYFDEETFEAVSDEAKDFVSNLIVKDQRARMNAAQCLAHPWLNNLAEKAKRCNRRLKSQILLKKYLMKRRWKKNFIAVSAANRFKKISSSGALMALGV

MKNK2, construct: Full length (from UniProt Q9HBH9)
relative phosphorylation
Conditions	at +1	at +2	at +3	at +4	at -1	at -2	at -3	at -4	at -5
A fixed	0.742	1	0.937	0.945	1.12	0.903	0.8	1.28	1.23
D fixed	0.22	0.453	0.406	0.728	0.37	0.24	0.239	0.284	0.221
E fixed	0.385	0.465	0.433	0.79	0.369	0.24	0.449	0.359	0.272
F fixed	1.36	0.807	0.936	0.895	0.555	0.439	0.453	0.721	0.949
G fixed	0.506	0.739	1.58	1.08	1.04	0.958	1.53	1.54	1.05
H fixed	1.06	1.71	1.32	1.22	1.24	0.874	1.07	1.02	0.898
I fixed	1.35	0.818	0.664	0.756	0.417	0.368	0.365	0.716	1.11
K fixed	1.02	0.875	1.89	1.62	3.14	2.06	3.1	1.75	1.4
L fixed	1.17	0.781	0.923	0.745	0.741	0.421	0.439	0.909	1.47
M fixed	1.73	0.915	0.942	0.849	0.887	0.427	0.617	0.898	0.976
N fixed	0.667	0.797	0.76	0.94	0.96	0.956	0.847	0.911	0.648
P fixed	0.24	0.44	0.931	1.21	0.284	0.571	1.48	1.58	1.49
Q fixed	1.59	0.904	1.1	1.13	1.2	0.835	0.957	0.884	0.767
R fixed	1.19	1.29	1.34	1.05	2.77	6.1	3.21	1.79	1.23
V fixed	1.19	0.981	0.703	0.861	0.566	0.5	0.401	0.749	1.47
W fixed	1.17	1.39	0.974	1.16	0.531	0.491	0.475	0.713	0.876
Y fixed	1.41	2.63	1.15	1.03	0.818	0.615	0.574	0.899	0.942
pThr fixed	0.649	0.492	0.516	0.736	0.203	0.304	0.47	0.562	0.572
pTyr fixed	0.783	0.714	0.604	0.782	0.285	0.356	0.568	0.647	0.642

MYLK2, construct: Full length (from UniProt Q9H1R3)
relative phosphorylation
Conditions	at +1	at +2	at +3	at +4	at -1	at -2	at -3	at -4	at -5
A fixed	1.17	0.898	0.72	1.02	1	1.55	0.879	1.34	1.37
D fixed	0.541	0.852	1.08	1.07	0.654	0.423	0.467	0.847	0.683
E fixed	0.705	1.5	0.72	1.38	0.659	0.454	0.605	1.03	0.644
F fixed	0.621	1.42	1.62	0.804	0.486	0.461	0.464	0.852	0.932
G fixed	1.19	0.696	1.03	0.936	0.922	1.37	1.45	1.46	1.5
H fixed	0.988	1.02	0.825	0.938	1.49	1.08	1.02	0.942	1.1
I fixed	0.784	1.28	1.37	1.36	0.556	0.471	0.412	0.639	0.657
K fixed	1.5	0.664	0.482	0.898	1.89	1.44	2.17	1.03	1.19
L fixed	0.785	1.15	2.01	1.17	0.885	0.461	0.421	0.702	0.723
M fixed	1.27	1.06	1.13	0.925	0.891	0.512	0.474	0.836	0.739
N fixed	0.945	0.783	0.84	0.736	1.41	0.819	0.85	0.894	0.884
P fixed	0.323	0.785	0.8	1.36	1.37	1	1.35	1.53	1.62
Q fixed	1.81	0.757	0.557	0.973	1.35	0.806	0.894	1.01	0.834
R fixed	1.68	0.575	0.525	0.58	1.13	4.52	3.77	1.28	0.929
V fixed	1.07	1.21	0.919	1.23	0.688	0.558	0.477	0.753	0.853
W fixed	0.902	1.31	1.6	0.903	0.658	0.527	0.691	1.01	1.25
Y fixed	0.721	1.04	0.78	0.715	0.958	0.529	0.6	0.843	1.08
pThr fixed	1.71	1.59	0.794	1.43	0.612	0.958	0.847	1.05	1.06
pTyr fixed	0.726	1.47	0.977	1.37	0.886	0.674	0.819	0.934	0.84

NLK, construct: Full length (from UniProt Q9UBE8)
relative phosphorylation
Conditions	at +1	at +2	at +3	at +4	at -1	at -2	at -3	at -4	at -5
A fixed	0.638	0.768	0.938	0.8	0.85	0.989	1.12	1.03	0.998
D fixed	0.435	0.514	0.628	0.634	0.604	0.568	0.652	0.931	1.01
E fixed	0.41	0.477	0.618	0.607	0.571	0.604	0.729	0.855	0.86
F fixed	0.806	0.705	0.863	0.75	0.88	0.807	0.723	0.802	0.926
G fixed	1.01	0.96	1.25	0.939	0.904	0.764	1.38	1.01	0.982
H fixed	0.652	1.23	1.04	0.982	1.21	0.842	0.819	1.11	1.02
I fixed	0.888	0.99	1.24	1.37	0.868	0.941	0.579	0.931	0.847
K fixed	0.654	1.56	1.39	1.47	1.16	0.992	0.991	1.18	1.19
L fixed	0.921	1.12	0.995	1	1.9	1.81	1.12	1.03	0.995
M fixed	0.902	0.853	1.01	0.983	1.38	1.56	1.63	0.992	0.768
N fixed	0.581	0.991	0.762	0.868	0.805	0.812	0.956	1.1	1.01
P fixed	5.41	0.754	0.9	0.946	1.07	1.42	1.16	0.89	1.02
Q fixed	0.629	0.904	0.883	0.948	0.953	1.03	0.941	1.02	1.06
R fixed	0.798	2.21	1.66	1.39	1.35	1.41	1.9	1.32	1.3
V fixed	0.777	1.09	0.989	1.16	0.995	0.861	0.864	0.85	0.831
W fixed	0.753	0.859	0.824	1.16	0.638	0.807	0.752	1.07	1.07
Y fixed	0.743	1.01	1.01	0.996	0.857	0.796	0.688	0.88	1.11
pThr fixed	0.784	0.694	0.723	0.725	0.775	0.996	0.944	1.18	0.965
pTyr fixed	0.717	0.523	0.796	0.631	0.774	0.772	0.734	0.661	0.949
